# Experimental data taken from PMC6800875, “Codon harmonization reduces amino acid misincorporation in bacterially expressed P. falciparum proteins and improves their immunogenicity” (AMB Express, 2019).
# B1: histidine tag-free CH-PfCelTOS (natural protein)
# chain: GTFRGNNGHNSSSSLYNGSQFIEQLNNSFTSAFLESQSMNKIGDDLAETISNELVSVLQKNSPTFLESSFDIKSEVKKHAKSMLKELIKVGLPSFENLVAENVKPPKVDPATYGIIVPVLTSLFNKVETAVGAKVSDEIWNYNSPDVSESEESLSDDFFD
# notes: two non-native amino acid residues introduced by cloning; the chain is 161 residues long, so one more residue stands before them; begins at F R G and holds 158 PfCelTOS residues; natural residue numbering; Made from the CH-PfCelTOS clone by replacing the His-tag linker; this is surmised; also called His-tag free PfCelTOS; Histidine tag-free PfCelTOS; source: E. coli, purified (Q-Sepharose twice, …)
# B2: N-PfCelTOS (P. falciparum cell-traversal protein for ookinetes and sporozoites, expressed from the native codon sequence) (natural protein)
# chain: FRGNNGHNSSSSLYNGSQFIEQLNNSFTSAFLESQSMNKIGDDLAETISNELVSVLQKNSPTFLESSFDIKSEVKKHAKSMLKELIKVGLPSFENLVAENVKPPKVDPATYGIIVPVLTSLFNKVETAVGAKVSDEIWNYNSPDVSESEESLSDDFFD
# notes: begins at F R G and holds 158 PfCelTOS residues; 174 residues in all with the 16 amino acid linker; natural residue numbering; also called N-protein; source: E. coli B834 (DE3), purified (Ni-NTA, Q-Sepharose); not shown: His6 (within a 16 amino acid linker), N-terminal, kept
# B3: CH-PfCelTOS (P. falciparum cell-traversal protein for ookinetes and sporozoites, expressed from the codon harmonized sequence) (natural protein, UniProt Q8I5P1 25-182, looked up)
# chain: FRGNNGHNSSSSLYNGSQFIEQLNNSFTSAFLESQSMNKIGDDLAETISNELVSVLQKNSPTFLESSFDIKSEVKKHAKSMLKELIKVGLPSFENLVAENVKPPKVDPATYGIIVPVLTSLFNKVETAVGAKVSDEIWNYNSPDVSESEESLSDDFFD
# notes: begins at F R G and holds 158 PfCelTOS residues; 174 residues in all with the 16 amino acid linker; natural residue numbering; also called CH-protein; source: E. coli B834 (DE3), purified (Ni-NTA, Q-Sepharose); not shown: His6 (within a 16 amino acid linker), N-terminal, kept
# What was measured:
# [1] = target: the molecule itself; assay: SEC; calibrated Superdex G-200 column, PBS pH 7.4, 0.5 mL/min, 4 °C; three standards (66, 29, 12.4 kDa); oligomer size estimated from the elution volume
# [2] = target: the molecule itself; assay: SDS-PAGE with western blot (band that resists denaturation); purified protein, untreated or incubated at 37 °C or 65 °C for 1, 4 and 24 h, on 4-20% Tris-glycine SDS-PAGE; blots probed with anti-His mAb and mAb 3D11.D4
Protein,stoichiometry N [1],stoichiometry N [2]
B1,~4,
B2,~3,~2
B3,~4,~2
